The results in this text go back to patent publication US20110237462A1 (FUJIFILM, published 2011).

The target in this experiment is T1, MBP-VH(BGP) labeled with ALEXA FLUOR 555 together with MBP-VL(BGP) labeled with ALEXA FLUOR 647 (labeled with ALEXA FLUOR 647 (labeled residues not stated); labeled with ALEXA FLUOR 555 (labeled residues not stated)).
T1 construct: Two separate MBP-fused antibody fragments, covalently immobilized on a carboxymethyl dextran glass substrate; The MBP leader is part of the printed entries; also called fusion protein of anti-osteocalcin (BGP) VH-region polypeptide with MBP; fusion protein of anti-BGP VL-region polypeptide (antibody KTM219) with MBP
Kind of experiment: FRET on immobilization substrates I and J.

B1: C-terminal heptapeptide fragment of BGP (RRFYGPY) (peptide)
peptide: RRFYGPY
notes: also called BGP heptapeptide; BGP heptapeptide (RRFYGPY)
For the molecule B1, the binding result is recorded as “binds”.
